The labels stand for the following.
T1: EsCas13d, nuclease-dead (Eubacterium siraeum, UniProt B0MS50, R295A;H300A;R849A;H854A)
T1 sequence: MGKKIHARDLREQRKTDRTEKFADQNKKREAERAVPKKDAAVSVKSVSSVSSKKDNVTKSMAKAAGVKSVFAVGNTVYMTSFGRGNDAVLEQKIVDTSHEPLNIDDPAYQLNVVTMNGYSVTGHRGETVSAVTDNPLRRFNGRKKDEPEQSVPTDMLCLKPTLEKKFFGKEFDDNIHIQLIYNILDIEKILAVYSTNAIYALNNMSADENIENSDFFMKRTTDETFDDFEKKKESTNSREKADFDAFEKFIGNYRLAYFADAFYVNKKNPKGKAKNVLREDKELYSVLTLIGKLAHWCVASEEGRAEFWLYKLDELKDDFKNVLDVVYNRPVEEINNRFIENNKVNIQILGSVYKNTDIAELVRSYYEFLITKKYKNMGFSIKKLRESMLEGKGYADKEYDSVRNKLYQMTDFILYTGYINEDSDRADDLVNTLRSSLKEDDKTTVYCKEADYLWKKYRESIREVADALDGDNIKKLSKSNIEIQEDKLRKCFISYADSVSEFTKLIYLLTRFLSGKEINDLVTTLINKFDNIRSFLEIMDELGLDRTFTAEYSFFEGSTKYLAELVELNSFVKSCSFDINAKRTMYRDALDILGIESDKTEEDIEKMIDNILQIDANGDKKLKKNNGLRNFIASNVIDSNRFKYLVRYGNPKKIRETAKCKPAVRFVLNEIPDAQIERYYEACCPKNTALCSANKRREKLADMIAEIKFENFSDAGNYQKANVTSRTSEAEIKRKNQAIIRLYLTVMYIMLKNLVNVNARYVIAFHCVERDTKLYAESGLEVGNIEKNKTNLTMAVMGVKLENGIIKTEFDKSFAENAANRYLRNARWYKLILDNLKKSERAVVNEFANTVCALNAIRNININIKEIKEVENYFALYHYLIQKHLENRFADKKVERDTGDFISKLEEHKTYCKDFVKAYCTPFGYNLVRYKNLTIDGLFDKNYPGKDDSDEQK

B1: target 1 insC 3' of 14,insU 3' of 7 (mixed)
RNA 1: CACCCGUGCAAAAAUGCAGGGGUCUAAAACUGAGCGGAUAACCUCUCUAUGG
RNA 2: GGGAAUGGAUCCACAUCUACGAAUUCGUACCAUAGAGACGGUUAUCUCGCUCACCGAGAUCGGAAGAGCACACGU
B2: target 1 insA 3' of 12,insA 3' of 11 (mixed)
RNA 1: B1 RNA 1
RNA 2: B1 RNA 2 with C39G, G41A, U43A, A44U, U45A, C46U, U47C
B3: target 1 A1G,U11G (mixed)
RNA 1: B1 RNA 1
RNA 2: GGGAAUGGAUCCACAUCUACGAAUUCGUACCAUAGAGAGGGUAUCCGCUCGCCGAGAUCGGAAGAGCACACGU
B4: target 1 insA 3' of 7,insU 3' of 5 (mixed)
RNA 1: B1 RNA 1
RNA 2: B1 RNA 2 with C39G, G41U, U43A, A44U, U45C, C46A, U47C, C48G, G49U
B5: target 1 insG 3' of 7,insC 3' of 5 (mixed)
RNA 1: B1 RNA 1
RNA 2: B1 RNA 2 with C39G, G41U, U43A, A44U, U45C, C46G, U47C, C48G, G49C
B6: target 1 G5A,G15C (mixed)
RNA 1: B1 RNA 1
RNA 2: B3 RNA 2 with G37C, G41U, G47A, G51A
B7: target 1 C7A,U8A (mixed)
RNA 1: B1 RNA 1
RNA 2: B3 RNA 2 with G41U, U44A, C45A, G51A
B8: target 1 insC 3' of 19,insU 3' of 5 (mixed)
RNA 1: B1 RNA 1
RNA 2: B1 RNA 2 with A34C, G35A, A36G, G37A, A38G, C39A, U47C, C48G, G49U
B9: target 1 insU 3' of 21,insU 3' of 21 (mixed)
RNA 1: B1 RNA 1
RNA 2: B1 RNA 2 with A32U, G35U, C39G, G40A, U42G, A44U, U45A, C46U, U47C
B10: target 1 G13A,G15U (mixed)
RNA 1: B1 RNA 1
RNA 2: B3 RNA 2 with G37U, G39A, G41U, G51A
B11: target 1 insU 3' of 17,insC 3' of 5 (mixed)
RNA 1: B1 RNA 1
RNA 2: B1 RNA 2 with A36U, G37A, A38G, C39A, U47C, C48G, G49C
B12: target 1 G5C,C21A (mixed)
RNA 1: B1 RNA 1
RNA 2: B3 RNA 2 with C31A, G41U, G47C, G51A
B13: target 1 insG 3' of 9,insG 3' of 4 (mixed)
RNA 1: B1 RNA 1
RNA 2: B1 RNA 2 with C39G, G41U, U43A, A44G, U47C, C48G, G49C, C50G
B14: target 1 U11C,A20U (mixed)
RNA 1: B1 RNA 1
RNA 2: B3 RNA 2 with A32U, G41C, G51A
B15: target 1 insG 3' of 9,insC 3' of 5 (mixed)
RNA 1: B1 RNA 1
RNA 2: B1 RNA 2 with C39G, G41U, U43A, A44G, U47C, C48G, G49C

Numbering of substitutions follows the chain as printed. Numbers in names are those of the source.

The target in this data set is T1, EsCas13d, nuclease-dead. Briefly: crRNA (strand 1, pre-loaded); Mg2+; 40 mM Tris-HCl pH 7.5, 150 mM NaCl, 6 mM MgCl2, 1 mM DTT, 0.1% Tween-20, 0.2 mg/ml BSA; 25 C; 10 min per concentration, then washed. Conditions: tags: His6-TwinStrep-SUMO cleaved; N-terminal SNAP kept (SNAP-Surface 488); label: 3' end held by stalled T7 RNA polymerase.
Usually Kd stands for a measure of binding affinity in units of concentration. High values mean lower affinity, low ones higher affinity. The molecule B1 returned a Kd of 41 ± 8 nM. For B2 the value was 29 ± 5 nM; for B3, 23.8 ± 1.6 nM; for B4, 11.4 ± 0.33 nM.

In the case of B5, the Kd stood at 9.8 ± 0.6 nM. With B6, the dissociation constant Kd came out at 54 ± 17 nM.

Consider B7, for which binding was put at a Kd of 7.41 ± 0.23 nM. To B8 belongs 39 ± 13 nM; to B9, 72 ± 13 nM. To B10 belongs 80 ± 40 nM; to B11, 60 ± 14 nM; to B12, 27 ± 5 nM. The molecule B13 displayed a Kd of 8.9 ± 0.6 nM. For B14, the Kd turned out to be 55 ± 7 nM. Turning to B15, binding was put at a Kd of 11.3 ± 0.5 nM.
